Here are results for one substance from publication PMC12046560.

For this test, the target named is Neorhodopsin (NeoR) rhodopsin module from Rhizoclosmatium globosum, residues 1-279 (Rhizoclosmatium globosum). Kind of test: cryo-EM structure; single-particle cryo-EM of purified NeoR in LMNG/CHS, 50 mM Hepes pH 7.4, 100 mM NaCl, after two SEC steps (monodisperse, single oligomeric state); 4.80 Å map refined under C1; two AlphaFold2 monomers fitted into the map.

With “Neorhodopsin (NeoR) rhodopsin module from Rhizoclosmatium globosum, residues 1-279 (domain or fragment)”, the stoichiometry N is 2.
